According to paper PMC7952133:

Columns and labels:
[1] = molecular target: HIV-1 myristoylated matrix (MA) L75G mutant protein (HIV-1 (pNL4-3 strain)); experiment: AUC; sedimentation equilibrium, 22,000, 26,000 and 30,000 rpm, 20 °C, pH 5.5, 50 mM sodium phosphates, 100 mM NaCl, 2 mM TCEP; global fit to a monomer–trimer equilibrium model (monomers to trimer), monomer mass 15.6 kDa and n = 3 fixed
[2] = molecular target: HIV-1 myristoylated matrix (MA) Q63R mutant protein (HIV-1 (pNL4-3 strain)); experiment: as above
[3] = molecular target: HIV-1 myristoylated matrix (MA) A45E mutant protein (HIV-1 (pNL4-3 strain)); experiment: as above
[4] = molecular target: HIV-1 unmyristoylated matrix Q63R mutant protein (HIV-1 (pNL4-3 strain)); experiment: crystal structure; hanging-drop vapor diffusion, 40% PEG 400, 0.1 M sodium acetate (pH 4), 50 mM lithium sulfate; protein at 20 mg/ml; two crystal forms; molecular replacement with PDB 1HIW
[5] = molecular target: HIV-1 myristoylated matrix (MA) protein, wild type (HIV-1 (pNL4-3 strain)); experiment: AUC; sedimentation equilibrium, 22,000, 26,000 and 30,000 rpm, 20 °C, pH 5.5, 50 mM sodium phosphates, 100 mM NaCl, 2 mM TCEP; global fit to a monomer–trimer equilibrium model (monomers to trimer), monomer mass 15.6 kDa and n = 3 fixed
[6] = molecular target: HIV-1 myristoylated matrix (MA) T70R mutant protein (HIV-1 (pNL4-3 strain)); experiment: as above

“HIV-1 myristoylated matrix (MA) L75G mutant protein (natural protein)” showed a Ka [1] of 1e+07 M⁻¹ and a stoichiometry N [1] of 3.
Work on “HIV-1 myristoylated matrix (MA) Q63R mutant protein (natural protein)” yielded a Ka [2] of 2e+07 M⁻¹ and a stoichiometry N [2] of 3.
“HIV-1 myristoylated matrix (MA) A45E mutant protein (natural protein)” showed a Ka [3] of 2.5e+07 M⁻¹ and a stoichiometry N [3] of 3.
For “HIV-1 unmyristoylated matrix Q63R mutant protein (natural protein)”, the stoichiometry N [4] was 3.
For “HIV-1 myristoylated matrix (MA) protein, wild type (natural protein)”, the Ka [5] was 2e+07 M⁻¹ and the stoichiometry N [5] was 3.
Work on “HIV-1 myristoylated matrix (MA) T70R mutant protein (natural protein)” yielded a Ka [6] of 2.8e+07 M⁻¹ and a stoichiometry N [6] of 3.
